Assay results: article PMC2383916
Read-outs that look alike come from different tables or passages of the source.

Legend:
[1] = biological target: GAL4-PER2 (mouse) (UniProt O54943); assay: two-hybrid; mammalian two-hybrid in HER911 cells: Gal4 DBD fusion and VP16 fusion co-transfected with the GAL4-based luciferase reporter pFR-luc and pCMV-lacZ; luciferase normalised to beta-galactosidase; reporter alone set to 1
[2] = biological target: GAL4-PER2 (mouse) (UniProt O54943); assay: two-hybrid; mammalian two-hybrid in cos-7 cells: Gal4 DBD fusion and VP16 fusion co-transfected with pFR-luc and pCMV-lacZ; reporter alone set to 1
[3] = biological target: GAL4-BMAL1 (mouse); assay: two-hybrid; mammalian two-hybrid in HER911 cells: Gal4 DBD fusion and VP16 fusion co-transfected with the GAL4-based luciferase reporter pFR-luc and pCMV-lacZ; luciferase normalised to beta-galactosidase; reporter alone set to 1
[4] = biological target: GAL4-CLOCK (mouse) (UniProt O08785); assay: as above
Chain of UniProt O08785 (O08785 whole entry, the tested form may be a part): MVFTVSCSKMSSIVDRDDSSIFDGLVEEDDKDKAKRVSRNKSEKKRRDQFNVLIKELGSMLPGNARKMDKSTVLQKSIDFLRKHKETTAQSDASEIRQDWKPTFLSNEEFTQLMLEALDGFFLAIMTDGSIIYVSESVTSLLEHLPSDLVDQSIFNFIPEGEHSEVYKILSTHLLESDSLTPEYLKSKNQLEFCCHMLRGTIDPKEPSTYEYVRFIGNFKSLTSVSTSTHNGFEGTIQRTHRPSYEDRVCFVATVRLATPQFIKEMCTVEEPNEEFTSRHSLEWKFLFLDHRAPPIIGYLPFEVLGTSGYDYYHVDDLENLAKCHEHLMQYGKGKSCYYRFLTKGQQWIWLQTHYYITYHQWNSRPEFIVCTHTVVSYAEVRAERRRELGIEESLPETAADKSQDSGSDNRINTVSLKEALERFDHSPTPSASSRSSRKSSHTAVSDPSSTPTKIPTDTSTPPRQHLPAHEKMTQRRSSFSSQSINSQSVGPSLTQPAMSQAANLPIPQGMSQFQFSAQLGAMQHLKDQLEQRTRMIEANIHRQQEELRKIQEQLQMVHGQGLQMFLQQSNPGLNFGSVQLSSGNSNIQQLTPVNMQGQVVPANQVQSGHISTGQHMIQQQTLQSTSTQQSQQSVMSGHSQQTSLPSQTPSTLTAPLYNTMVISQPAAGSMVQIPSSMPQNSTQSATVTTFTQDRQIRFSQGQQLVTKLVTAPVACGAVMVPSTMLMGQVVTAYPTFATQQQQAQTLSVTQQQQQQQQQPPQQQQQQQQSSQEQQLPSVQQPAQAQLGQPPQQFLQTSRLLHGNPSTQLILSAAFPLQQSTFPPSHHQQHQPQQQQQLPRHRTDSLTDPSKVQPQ

[5] = biological target: GAL4-BMAL1ΔPAS B/C-term (mouse); assay: as above
[6] = biological target: GAL4-BMAL1ΔC-term (mouse); assay: as above
[7] = biological target: GAL4-BMAL1 (mouse); assay: two-hybrid; mammalian two-hybrid in cos-7 cells: Gal4 DBD fusion and VP16 fusion co-transfected with pFR-luc and pCMV-lacZ; reporter alone set to 1
[8] = biological target: GAL4-CRY2 (mouse) (UniProt Q9R194); assay: two-hybrid; mammalian two-hybrid in HER911 cells: Gal4 DBD fusion and VP16 fusion co-transfected with the GAL4-based luciferase reporter pFR-luc and pCMV-lacZ; luciferase normalised to beta-galactosidase; reporter alone set to 1
[9] = biological target: GAL4-CRY1 (mouse) (UniProt P97784); assay: as above
[10] = biological target: GAL4-CRY2 (mouse) (UniProt Q9R194); assay: two-hybrid; mammalian two-hybrid in cos-7 cells: Gal4 DBD fusion and VP16 fusion co-transfected with pFR-luc and pCMV-lacZ; reporter alone set to 1
[11] = biological target: GAL4-CRY1 (mouse) (UniProt P97784); assay: as above
[12] = biological target: GAL4-BMAL1 (mouse); assay: two-hybrid; mammalian two-hybrid in HER911 cells: Gal4 DBD fusion and VP16 fusion co-transfected with the GAL4-based luciferase reporter pFR-luc and pCMV-lacZ; luciferase normalised to beta-galactosidase; reporter alone set to 1; remark: listed apart in the source
[13] = biological target: GAL4-BMAL1ΔC-term (mouse); assay: as above; remark: listed apart in the source
[14] = biological target: GAL4-BMAL1ΔHLH/PAS A (mouse); assay: as above

Chain of UniProt O54943 (O54943 whole entry, the tested form may be a part): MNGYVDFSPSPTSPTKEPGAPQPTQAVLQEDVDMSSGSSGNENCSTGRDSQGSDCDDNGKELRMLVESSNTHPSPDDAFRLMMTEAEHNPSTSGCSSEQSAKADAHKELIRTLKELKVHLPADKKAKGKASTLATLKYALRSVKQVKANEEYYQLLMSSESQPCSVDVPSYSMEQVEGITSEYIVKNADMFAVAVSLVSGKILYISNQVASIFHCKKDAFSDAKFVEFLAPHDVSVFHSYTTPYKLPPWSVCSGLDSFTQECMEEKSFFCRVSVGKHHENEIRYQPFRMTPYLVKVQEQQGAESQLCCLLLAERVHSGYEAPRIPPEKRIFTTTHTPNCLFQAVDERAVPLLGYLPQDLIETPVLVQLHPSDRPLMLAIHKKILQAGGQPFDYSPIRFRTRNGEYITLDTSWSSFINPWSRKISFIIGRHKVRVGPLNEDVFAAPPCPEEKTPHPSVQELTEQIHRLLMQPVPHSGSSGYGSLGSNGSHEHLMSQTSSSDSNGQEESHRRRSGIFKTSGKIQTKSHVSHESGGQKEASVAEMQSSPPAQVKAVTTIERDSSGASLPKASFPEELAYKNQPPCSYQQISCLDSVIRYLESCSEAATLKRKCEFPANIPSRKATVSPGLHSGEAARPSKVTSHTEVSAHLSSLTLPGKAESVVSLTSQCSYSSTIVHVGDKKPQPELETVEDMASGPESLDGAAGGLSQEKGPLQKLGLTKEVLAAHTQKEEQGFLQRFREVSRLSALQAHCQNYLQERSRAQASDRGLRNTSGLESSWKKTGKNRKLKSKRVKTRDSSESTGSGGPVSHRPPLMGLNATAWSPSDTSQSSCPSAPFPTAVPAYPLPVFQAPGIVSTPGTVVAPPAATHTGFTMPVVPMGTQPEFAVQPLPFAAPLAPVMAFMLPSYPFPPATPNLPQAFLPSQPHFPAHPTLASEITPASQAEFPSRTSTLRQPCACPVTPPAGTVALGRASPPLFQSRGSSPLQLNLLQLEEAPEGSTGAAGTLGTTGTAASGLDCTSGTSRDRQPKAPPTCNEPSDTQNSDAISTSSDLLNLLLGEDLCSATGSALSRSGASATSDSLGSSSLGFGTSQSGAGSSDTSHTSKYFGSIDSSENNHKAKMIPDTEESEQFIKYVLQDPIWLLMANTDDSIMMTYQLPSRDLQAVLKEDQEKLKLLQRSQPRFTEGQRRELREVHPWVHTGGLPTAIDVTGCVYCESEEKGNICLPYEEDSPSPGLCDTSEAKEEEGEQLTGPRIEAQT

**Q.** Which fold luciferase activity over reporter alone [1] does the source give for “CLOCK-VP16 (from UniProt O08785 1-855) (natural protein)” here?
**A.** 110 fold

**Q.** What about the fold luciferase activity over reporter alone [2] of the same molecule?
**A.** 55 fold

**Q.** What does the source list for “PER2-VP16 (from UniProt O54943 1-1257) (natural protein)”?
**A.** fold luciferase activity over reporter alone [3]: 1000 fold; fold luciferase activity over reporter alone [4]: 75 fold; fold luciferase activity over reporter alone [5]: 5 fold; fold luciferase activity over reporter alone [6]: 150 fold; fold luciferase activity over reporter alone [7]: 200 fold

**Q.** BMAL1-VP16 (natural protein) was tested. Which fold luciferase activity over reporter alone [1] did it give?
**A.** 110 fold

**Q.** And the fold luciferase activity over reporter alone [8]?
**A.** 10 fold

**Q.** And the fold luciferase activity over reporter alone [9]?
**A.** 70 fold

**Q.** What about the fold luciferase activity over reporter alone [2] of the same molecule?
**A.** 2900 fold

**Q.** What about the fold luciferase activity over reporter alone [10] of the same molecule?
**A.** 125 fold

**Q.** And the fold luciferase activity over reporter alone [11]?
**A.** 450 fold

B1: CRY1-VP16 (natural protein)
chain: MGVNAVHWFRKGLRLHDNPALKECIQGADTIRCVYILDPWFAGSSNVGINRWRFLLQCLEDLDANLRKLNSRLFVIRGQPADVFPRLFKEWNITKLSIEYDSEPFGKERDAAIKKLATEAGVEVIVRISHTLYDLDKIIELNGGQPPLTYKRFQTLVSKMEPLEMPADTITSDVIGKCMTPLSDDHDEKYGVPSLEELGFDTDGLSSAVWPGGETEALTRLERHLERKAWVANFERPRMNANSLLASPTGLSPYLRFGCLSCRLFYFKLTDLYKKVKKNSSPPLSLYGQLLWREFFYTAATNNPRFDKMEGNPICVQIPWDKNPEALAKWAEGRTGFPWIDAIMTQLRQEGWIHHLARHAVACFLTRGDLWISWEEGMKVFEELLLDADWSINAGSWMWLSCSSFFQQFFHCYCPVGFGRRTDPNGDYIRRYLPVLRGFPAKYIYDPWNAPEGIQKVAKCLIGVNYPKPMVNHAEASRLNIERMKQIYQQLSRYRGLGLLASVPSNSNGNGGLMGYAPGENVPSCSSSGNGGLMGYAPGENVPSCSGGNCSQGSGILHYAHGDSQQTHSLKQGRSSAGTGLSSGKRPSQEEDAQSVGPKVQRQSSN
**Q.** How did the fold luciferase activity over reporter alone [12] turn out when B1 was run?
**A.** 750 fold

**Q.** What about the fold luciferase activity over reporter alone [13] of the same molecule?
**A.** 50 fold

**Q.** What about the fold luciferase activity over reporter alone [7] of the same molecule?
**A.** 110 fold

B2: CRY2-VP16 (natural protein)
chain: MAAAAVVAATVPAQSMGADGASSVHWFRKGLRLHDNPALLAAVRGARCVRCVYILDPWFAASSSVGINRWRFLLQSLEDLDTSLRKLNSRLFVVRGQPADVFPRLFKEWGVTRLTFEYDSEPFGKERDAAIMKMAKEAGVEVVTENSHTLYDLDRIIELNGQKPPLTYKRFQALISRMELPKKPAVAVSSQQMESCRAEIQENHDDTYGVPSLEELGFPTEGLGPAVWQGGETEALARLDKHLERKAWVANYERPRMNANSLLASPTGLSPYLRFGCLSCRLFYYRLWDLYKKVKRNSTPPLSLFGQLLWREFFYTAATNNPRFDRMEGNPICIQIPWDRNPEALAKWAEGKTGFPWIDAIMTQLRQEGWIHHLARHAVACFLTRGDLWVSWESGVRVFDELLLDADFSVNAGSWMWLSCSAFFQQFFHCYCPVGFGRRTDPSGDYIRRYLPKLKGFPSRYIYEPWNAPESVQKAAKCIIGVDYPRPIVNHAETSRLNIERMKQIYQQLSRYRGLCLLASVPSCVEDLSHPVAEPGSSQAGSISNTGPRALSSGPASPKRKLEAAEEPPGEELTKRARVTEMPTQEPASKDS
**Q.** Which fold luciferase activity over reporter alone [12] does the source give for B2 here?
**A.** 950 fold

**Q.** What about the fold luciferase activity over Gal4-Bmal1ΔHLH/PAS A alone [14] of the same molecule?
**A.** 3 fold

**Q.** And the fold luciferase activity over reporter alone [7]?
**A.** 70 fold
